The text below walks through data of publication PMC6078178 (Nature, 2017).

The test concerns the target T1, Tfa1 (TFIIE subunit) (S. cerevisiae, UniProt P36100 1-482).
T1 sequence (looked up): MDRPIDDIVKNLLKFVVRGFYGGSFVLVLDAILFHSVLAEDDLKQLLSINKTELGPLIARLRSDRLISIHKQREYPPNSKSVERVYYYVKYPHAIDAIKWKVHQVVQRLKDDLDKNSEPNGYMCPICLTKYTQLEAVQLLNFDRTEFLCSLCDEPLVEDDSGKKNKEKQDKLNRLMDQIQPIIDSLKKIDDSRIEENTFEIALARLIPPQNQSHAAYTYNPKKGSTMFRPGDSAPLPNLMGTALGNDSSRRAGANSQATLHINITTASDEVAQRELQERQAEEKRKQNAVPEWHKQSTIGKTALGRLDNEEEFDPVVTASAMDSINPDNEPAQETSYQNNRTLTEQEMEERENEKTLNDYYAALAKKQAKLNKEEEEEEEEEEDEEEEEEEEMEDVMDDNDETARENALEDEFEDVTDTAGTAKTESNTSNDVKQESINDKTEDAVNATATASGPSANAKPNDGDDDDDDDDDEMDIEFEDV
Briefly: cross-linking.

B1: Ssl1 (natural protein, S. cerevisiae, UniProt Q04673 1-461, looked up)
chain: MAPVVISESEEDEDRVAITRRTKRQVHFDGEGDDRVDQQQQQHSSSHRDRDKHVQRKKKKRLSNRNLQGSNGGYAWEDEIKRSWDLVKVDDEGDMASLVASIVEARKKRTAKKNITPYQRGIIRSLILTLDCSEAMLEKDLRPNRHAMIIQYAIDFVHEFFDQNPISQMGIIIMRNGLAQLVSQVSGNPQDHIDALKSIRKQEPKGNPSLQNALEMARGLLLPVPAHCTREVLIVFGSLSTTDPGDIHQTIDSLVSEKIRVKVLGLSAQVAICKELCKATNYGDESFYKILLDETHLKELFNEAVTPLPVNKINKGFTLVKMGFPTRIFEDTPTFCSCHSKLVYGGYFCPNCHSKVCSLPTVCPCCDLMLILSTHLARSYHHLMPLKTFAEVPTTEKFRSEDCFSCQSRFPILKNHKNGKLLTSSRYRCEDCKQEFCVDCDVFIHEILHNCPGCESKPVIT
On to B1, for which the binding result is “binds”.
